This is an account of results in paper PMC4739761, “AMPylation matches BiP activity to client protein load in the endoplasmic reticulum” (eLife, 2015).

Where no end group is shown, it is not given here.

B1: unlabeled substrate peptide (HTFPAVL) (peptide)
peptide: HTFPAVL
notes: also called unlabeled peptide
B2: lucifer yellow-labeled BiP substrate peptide (HTFPAVLGSC) (peptide)
peptide: HTFPAVLGSC
modifications: also: lucifer yellow label, position not given here
notes: well-characterized BiP substrate peptide; also called LY-labeled substrate peptide; fluorescently-labeled substrate peptide
B3: hamster BiP (27-654, with a His6-tag) AMPylated in vitro to completion on Thr518 (natural protein)
chain: not shown
modifications: AMPylated threonine at 518 (single AMP)
notes: BiP (GRP78), Chinese hamster (Cricetulus griseus), residues 27-654; numbers count on the precursor with its signal peptide (mature BiP is 19-654); also called BiP-AMP; AMPylated BiP; source: E. coli M15, purified (Ni-NTA); not shown: His6, N-terminal, kept
B4: hamster BiP (27-654, with a His6-tag), unmodified (natural protein)
chain: not shown
notes: BiP (GRP78), Chinese hamster (Cricetulus griseus), residues 27-654; numbers count on the precursor with its signal peptide (mature BiP is 19-654); also called wildtype (wt) BiP; GRP78; source: E. coli M15, purified (Ni-NTA); unmodified BiP from mock in vitro AMPylation reactions without enzyme served as control in the functional assays; not shown: His6, N-terminal, kept

Settings in all cases: both partners purified
Experiment [1] deals with B4. Nature of the experiment: fluorescence polarisation; competitive dissociation: pre-formed complex of BiP or BiP-AMP (40 µM) and LY-labeled peptide (1 µM) in 1 mM ADP, 400-fold excess (0.4 mM) of unlabeled peptide added at t = 0; single phase decay fit of the first 60 min. A general note: In fluorescence polarisation assays a small probe gives low polarisation when free and higher when bound to something large.

Experiment [2] deals with B3. Described as above.
For experiment [3], the target named is B4. Nature of the experiment: fluorescence polarisation; steady state: 1 µM lucifer yellow-labeled peptide with BiP or BiP-AMP at 0-40 µM, 1 mM ADP, 24 hr at 30°C, FP buffer (37.5 mM HEPES-KOH pH 7.4, 125 mM KCl, 7 mM MgCl2, 0.5 mM CaCl2, 125 mM imidazole, 0.05% Triton X-100); read at room temperature.
The target in experiment [4] is B3. Described as above.
In experiment [5] the target is B2. Put plainly: fluorescence polarisation; competitive dissociation: pre-formed complex of BiP or BiP-AMP (40 µM) and LY-labeled peptide (1 µM) in 1 mM ADP, 400-fold excess (0.4 mM) of unlabeled peptide added at t = 0; single phase decay fit of the first 60 min.

On to B1, for which the binding result in experiment [1] and in experiment [2] was “binds” each time.
Turning to B2, the koff (in general, the rate constant with which the complex falls apart) was 0.000617 s⁻¹ in experiment [1] and 0.00353 s⁻¹ in experiment [2]. Further, the Kd (usually a measure of binding affinity in units of concentration) in experiment [3] stood at 16.7 µM; in experiment [4], 11.5 µM.
Take B3: in experiment [5], the “half-life (t1/2) of the complex” value came to 3.3 min.
The same measure, in the same setting: the same measure for B4: 19.3 min.
